Measurements reported in article PMC10786891, “Massively parallel profiling of RNA-targeting CRISPR-Cas13d”.

B1: target 2 MT 5'PFS GGC 3'PFS AGU (mixed)
RNA 1: CACCCGUGCAAAAUUGCAGGGGUCUAAAACCUUCUCCAAAUUGUUUCAUCCU
RNA 2: GGGAAUGGAUCCACAUCUACGAAUUCGGCAGGAUGAAACAAUUUGGAGAAGAGUAGAUCGGAAGAGCACACGU
B2: target 2 MT 5'PFS GCU 3'PFS AAA (mixed)
RNA 1: CACCCGUGCAAAAUUGCAGGGGUCUAAAACCUUCUCCAAAUUGUUUCAUCCU
RNA 2: GGGAAUGGAUCCACAUCUACGAAUUCGCUAGGAUGAAACAAUUUGGAGAAGAAAAGAUCGGAAGAGCACACGU
B3: target 2 MT 5'PFS GCU 3'PFS AAC (mixed)
RNA 1: CACCCGUGCAAAAUUGCAGGGGUCUAAAACCUUCUCCAAAUUGUUUCAUCCU
RNA 2: GGGAAUGGAUCCACAUCUACGAAUUCGCUAGGAUGAAACAAUUUGGAGAAGAACAGAUCGGAAGAGCACACGU
B4: target 2 MT 5'PFS AAG 3'PFS UCC (mixed)
RNA 1: CACCCGUGCAAAAUUGCAGGGGUCUAAAACCUUCUCCAAAUUGUUUCAUCCU
RNA 2: GGGAAUGGAUCCACAUCUACGAAUUCAAGAGGAUGAAACAAUUUGGAGAAGUCCAGAUCGGAAGAGCACACGU
B5: target 2 MT 5'PFS GCU 3'PFS AAG (mixed)
RNA 1: CACCCGUGCAAAAUUGCAGGGGUCUAAAACCUUCUCCAAAUUGUUUCAUCCU
RNA 2: GGGAAUGGAUCCACAUCUACGAAUUCGCUAGGAUGAAACAAUUUGGAGAAGAAGAGAUCGGAAGAGCACACGU
B6: target 1 C6A,A9U (mixed)
RNA 1: CACCCGUGCAAAAAUGCAGGGGUCUAAAACUGAGCGGAUAACCUCUCUAUGG
RNA 2: GGGAAUGGAUCCACAUCUACGAAUUCGUACCAUAGAGAGGUUUUCAGCUCACCGAGAUCGGAAGAGCACACGU
B7: target 2 MT 5'PFS GGC 3'PFS AGC (mixed)
RNA 1: CACCCGUGCAAAAUUGCAGGGGUCUAAAACCUUCUCCAAAUUGUUUCAUCCU
RNA 2: GGGAAUGGAUCCACAUCUACGAAUUCGGCAGGAUGAAACAAUUUGGAGAAGAGCAGAUCGGAAGAGCACACGU
B8: target 2 MT 5'PFS UCG 3'PFS CUA (mixed)
RNA 1: CACCCGUGCAAAAUUGCAGGGGUCUAAAACCUUCUCCAAAUUGUUUCAUCCU
RNA 2: GGGAAUGGAUCCACAUCUACGAAUUCUCGAGGAUGAAACAAUUUGGAGAAGCUAAGAUCGGAAGAGCACACGU
B9: target 2 MT 5'PFS GGC 3'PFS AGA (mixed)
RNA 1: CACCCGUGCAAAAUUGCAGGGGUCUAAAACCUUCUCCAAAUUGUUUCAUCCU
RNA 2: GGGAAUGGAUCCACAUCUACGAAUUCGGCAGGAUGAAACAAUUUGGAGAAGAGAAGAUCGGAAGAGCACACGU
B10: target 2 MT 5'PFS GGC 3'PFS AGG (mixed)
RNA 1: CACCCGUGCAAAAUUGCAGGGGUCUAAAACCUUCUCCAAAUUGUUUCAUCCU
RNA 2: GGGAAUGGAUCCACAUCUACGAAUUCGGCAGGAUGAAACAAUUUGGAGAAGAGGAGAUCGGAAGAGCACACGU
B11: target 2 MT 5'PFS AAG 3'PFS UCU (mixed)
RNA 1: CACCCGUGCAAAAUUGCAGGGGUCUAAAACCUUCUCCAAAUUGUUUCAUCCU
RNA 2: GGGAAUGGAUCCACAUCUACGAAUUCAAGAGGAUGAAACAAUUUGGAGAAGUCUAGAUCGGAAGAGCACACGU
B12: target 2 MT 5'PFS GCU 3'PFS AAU (mixed)
RNA 1: CACCCGUGCAAAAUUGCAGGGGUCUAAAACCUUCUCCAAAUUGUUUCAUCCU
RNA 2: GGGAAUGGAUCCACAUCUACGAAUUCGCUAGGAUGAAACAAUUUGGAGAAGAAUAGAUCGGAAGAGCACACGU
B13: target 2 MT 5'PFS GUA 3'PFS UCU (mixed)
RNA 1: CACCCGUGCAAAAUUGCAGGGGUCUAAAACCUUCUCCAAAUUGUUUCAUCCU
RNA 2: GGGAAUGGAUCCACAUCUACGAAUUCGUAAGGAUGAAACAAUUUGGAGAAGUCUAGAUCGGAAGAGCACACGU
B14: target 2 MT 5'PFS UUU 3'PFS AAU (mixed)
RNA 1: CACCCGUGCAAAAUUGCAGGGGUCUAAAACCUUCUCCAAAUUGUUUCAUCCU
RNA 2: GGGAAUGGAUCCACAUCUACGAAUUCUUUAGGAUGAAACAAUUUGGAGAAGAAUAGAUCGGAAGAGCACACGU
B15: target 2 MT 5'PFS UUU 3'PFS AAC (mixed)
RNA 1: CACCCGUGCAAAAUUGCAGGGGUCUAAAACCUUCUCCAAAUUGUUUCAUCCU
RNA 2: GGGAAUGGAUCCACAUCUACGAAUUCUUUAGGAUGAAACAAUUUGGAGAAGAACAGAUCGGAAGAGCACACGU
B16: target 2 MT 5'PFS UUU 3'PFS AAA (mixed)
RNA 1: CACCCGUGCAAAAUUGCAGGGGUCUAAAACCUUCUCCAAAUUGUUUCAUCCU
RNA 2: GGGAAUGGAUCCACAUCUACGAAUUCUUUAGGAUGAAACAAUUUGGAGAAGAAAAGAUCGGAAGAGCACACGU
B17: target 1 C2A,A9U (mixed)
RNA 1: CACCCGUGCAAAAAUGCAGGGGUCUAAAACUGAGCGGAUAACCUCUCUAUGG
RNA 2: GGGAAUGGAUCCACAUCUACGAAUUCGUACCAUAGAGAGGUUUUCCGCUAACCGAGAUCGGAAGAGCACACGU
B18: target 2 MT 5'PFS UUU 3'PFS AAG (mixed)
RNA 1: CACCCGUGCAAAAUUGCAGGGGUCUAAAACCUUCUCCAAAUUGUUUCAUCCU
RNA 2: GGGAAUGGAUCCACAUCUACGAAUUCUUUAGGAUGAAACAAUUUGGAGAAGAAGAGAUCGGAAGAGCACACGU
B19: target 2 MT 5'PFS CAU 3'PFS CCC (mixed)
RNA 1: CACCCGUGCAAAAUUGCAGGGGUCUAAAACCUUCUCCAAAUUGUUUCAUCCU
RNA 2: GGGAAUGGAUCCACAUCUACGAAUUCCAUAGGAUGAAACAAUUUGGAGAAGCCCAGAUCGGAAGAGCACACGU
B20: target 2 MT 5'PFS CAU 3'PFS CCA (mixed)
RNA 1: CACCCGUGCAAAAUUGCAGGGGUCUAAAACCUUCUCCAAAUUGUUUCAUCCU
RNA 2: GGGAAUGGAUCCACAUCUACGAAUUCCAUAGGAUGAAACAAUUUGGAGAAGCCAAGAUCGGAAGAGCACACGU
B21: target 2 MT 5'PFS CAU 3'PFS CCG (mixed)
RNA 1: CACCCGUGCAAAAUUGCAGGGGUCUAAAACCUUCUCCAAAUUGUUUCAUCCU
RNA 2: GGGAAUGGAUCCACAUCUACGAAUUCCAUAGGAUGAAACAAUUUGGAGAAGCCGAGAUCGGAAGAGCACACGU
B22: target 2 MT 5'PFS GCU 3'PFS CCG (mixed)
RNA 1: CACCCGUGCAAAAUUGCAGGGGUCUAAAACCUUCUCCAAAUUGUUUCAUCCU
RNA 2: GGGAAUGGAUCCACAUCUACGAAUUCGCUAGGAUGAAACAAUUUGGAGAAGCCGAGAUCGGAAGAGCACACGU
B23: target 2 MT 5'PFS GGC 3'PFS CAC (mixed)
RNA 1: CACCCGUGCAAAAUUGCAGGGGUCUAAAACCUUCUCCAAAUUGUUUCAUCCU
RNA 2: GGGAAUGGAUCCACAUCUACGAAUUCGGCAGGAUGAAACAAUUUGGAGAAGCACAGAUCGGAAGAGCACACGU
B24: target 2 MT 5'PFS GAC 3'PFS CGG (mixed)
RNA 1: CACCCGUGCAAAAUUGCAGGGGUCUAAAACCUUCUCCAAAUUGUUUCAUCCU
RNA 2: GGGAAUGGAUCCACAUCUACGAAUUCGACAGGAUGAAACAAUUUGGAGAAGCGGAGAUCGGAAGAGCACACGU
B25: target 2 MT 5'PFS GGC 3'PFS CAA (mixed)
RNA 1: CACCCGUGCAAAAUUGCAGGGGUCUAAAACCUUCUCCAAAUUGUUUCAUCCU
RNA 2: GGGAAUGGAUCCACAUCUACGAAUUCGGCAGGAUGAAACAAUUUGGAGAAGCAAAGAUCGGAAGAGCACACGU
B26: target 2 MT 5'PFS GGC 3'PFS CAG (mixed)
RNA 1: CACCCGUGCAAAAUUGCAGGGGUCUAAAACCUUCUCCAAAUUGUUUCAUCCU
RNA 2: GGGAAUGGAUCCACAUCUACGAAUUCGGCAGGAUGAAACAAUUUGGAGAAGCAGAGAUCGGAAGAGCACACGU
B27: target 2 MT 5'PFS GGC 3'PFS UAC (mixed)
RNA 1: CACCCGUGCAAAAUUGCAGGGGUCUAAAACCUUCUCCAAAUUGUUUCAUCCU
RNA 2: GGGAAUGGAUCCACAUCUACGAAUUCGGCAGGAUGAAACAAUUUGGAGAAGUACAGAUCGGAAGAGCACACGU
B28: target 1 insG 3' of 20,insG 3' of 8 (mixed)
RNA 1: CACCCGUGCAAAAAUGCAGGGGUCUAAAACUGAGCGGAUAACCUCUCUAUGG
RNA 2: GGGAAUGGAUCCACAUCUACGAAUUCGUACCAGUAGAGAGGUUAUGCCGCUCACCGAGAUCGGAAGAGCACACGU

These binders were tested against T1, EsCas13d, nuclease-dead (Eubacterium siraeum, UniProt B0MS50, R295A;H300A;R849A;H854A) (assay: crRNA (strand 1, pre-loaded); Mg2+; 40 mM Tris-HCl pH 7.5, 150 mM NaCl, 6 mM MgCl2, 1 mM DTT, 0.1% Tween-20, 0.2 mg/ml BSA; 25 C; 10 min per concentration, then washed). Conditions: tags: His6-TwinStrep-SUMO cleaved; N-terminal SNAP kept (SNAP-Surface 488); label: 3' end held by stalled T7 RNA polymerase.
T1 sequence: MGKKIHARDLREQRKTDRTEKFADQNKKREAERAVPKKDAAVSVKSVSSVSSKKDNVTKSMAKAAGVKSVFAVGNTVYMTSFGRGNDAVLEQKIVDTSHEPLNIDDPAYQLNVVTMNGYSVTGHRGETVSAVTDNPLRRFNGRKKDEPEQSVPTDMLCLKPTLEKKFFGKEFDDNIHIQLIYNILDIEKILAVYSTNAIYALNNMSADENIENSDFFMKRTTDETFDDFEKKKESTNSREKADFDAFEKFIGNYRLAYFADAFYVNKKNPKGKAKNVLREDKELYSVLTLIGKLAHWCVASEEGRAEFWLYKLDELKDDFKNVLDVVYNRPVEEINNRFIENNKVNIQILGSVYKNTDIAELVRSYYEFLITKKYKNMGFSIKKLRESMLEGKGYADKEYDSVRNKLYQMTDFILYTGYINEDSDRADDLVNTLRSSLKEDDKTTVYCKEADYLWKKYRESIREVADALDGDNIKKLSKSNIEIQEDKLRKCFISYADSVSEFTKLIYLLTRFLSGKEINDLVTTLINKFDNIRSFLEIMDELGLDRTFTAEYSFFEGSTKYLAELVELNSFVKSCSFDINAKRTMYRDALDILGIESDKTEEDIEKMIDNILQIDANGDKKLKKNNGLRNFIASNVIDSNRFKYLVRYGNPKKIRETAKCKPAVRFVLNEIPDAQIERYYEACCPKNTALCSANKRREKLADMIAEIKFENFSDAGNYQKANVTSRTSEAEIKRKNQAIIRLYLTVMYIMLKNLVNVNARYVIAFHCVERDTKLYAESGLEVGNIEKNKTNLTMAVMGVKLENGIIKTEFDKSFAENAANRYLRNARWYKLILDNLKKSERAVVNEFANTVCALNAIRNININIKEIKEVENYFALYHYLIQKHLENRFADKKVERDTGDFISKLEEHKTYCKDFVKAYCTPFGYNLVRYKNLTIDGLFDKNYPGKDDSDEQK
Work on B1 yielded a Kd of 11.5 ± 0.8 nM.
Work on B2 yielded a Kd of 5.9 ± 1 nM.
With B3 the Kd was 10.1 ± 1.9 nM.
In the case of B4, the Kd is reported as 16.3 ± 2.5 nM.
B5 gave a Kd of 11.3 ± 2 nM.
B6 gave a Kd of 7.38 ± 0.22 nM.
Binder B7 has a Kd of 12.1 ± 1.6 nM.
B8 was tested, and the Kd was 32 ± 10 nM.
In the case of B9, the Kd is reported as 10.4 ± 2 nM.
B10 was tested, and the Kd was 14.9 ± 1.8 nM.
For B11, the Kd was 20 ± 6 nM.
B12 showed a Kd of 12 ± 4 nM.
Work on B13 yielded a Kd of 18.6 ± 2.7 nM.
For B14, the Kd was 9.9 ± 1.2 nM.
With B15 the Kd was 7.3 ± 0.8 nM.
With B16 the Kd was 8.9 ± 1.2 nM.
With B17 the Kd was 8.3 ± 0.4 nM.
In the case of B18, the Kd is reported as 7.1 ± 0.9 nM.
Binder B19 has a Kd of 16 ± 6 nM.
Work on B20 yielded a Kd of 11.5 ± 1.6 nM.
B21 was tested, and the Kd was 4.07 ± 0.31 nM.
B22 gave a Kd of 17.9 ± 3.4 nM.
Work on B23 yielded a Kd of 15.8 ± 3.1 nM.
In the case of B24, the Kd is reported as 8.9 ± 1 nM.
B25 was tested, and the Kd was 8.9 ± 1.7 nM.
B26 was tested, and the Kd was 12.1 ± 1.4 nM.
With B27 the Kd was 18.9 ± 3.5 nM.
B28 was tested, and the Kd was 40 ± 4 nM.
